Our source for the Kd values is patent US20260250328A1 (published 2026).

Common to all, as to test: SPR
Assay [1] concerns the target P2-2C-RBD (insect cell expression system).
Assay [2] has as its target P2-3E-RBD (insect cell expression system).
Assay [3] addresses P1-1G-RBD (insect cell expression system).
Assay [4] has as its target P2-3A-RBD (insect cell expression system).
Assay [5] concerns the target P2-3D-RBD (insect cell expression system).
For assay [6], the target named is P1-5B-RBD (insect cell expression system).
Assay [7] concerns the target P1-5B-RBD (mammalian cell expression system).
Assay [8] addresses P2-3E-RBD (mammalian cell expression system).
For assay [9], the target named is P2-3A-RBD (mammalian cell expression system).
In assay [10] the target is P2-5C-RBD (mammalian cell expression system).
For assay [11], the target named is P2-2C-RBD (mammalian cell expression system).
A further assay deals with P2-4G.

By Kd is commonly meant the equilibrium constant for the complex coming apart.

B1: HEV-p239 (other)
chain: IALTLFNLADTLLGGLPTELISSAGGQLFYSRPVVSANGEPTVKLYTSVENAQQDKGIAIPHDIDLGESRVVIQDYDNQHEQDRPTPSPAPSRPFSVLRANDVLWLSLTAAEYDQSTYGSSTGPVYVSDSVTLVNVATGAQAVARSLDWTKVTLDGRPLSTIQQYSKTFFVLPLRGKLSFWEAGTTKAGYPYNYNTTASDQLLVENAAGHRVAISTYTTSLGAGPVSISAVAVLAPHSV
For the molecule B1, the Kd stood at 3.71 nM in [1]; 1.41 nM in assay [2]; 3.57 nM in [3]; 0.655 nM in assay [4]; 1.8 nM in assay [5]; 1.13 nM in assay [6]. In addition, the Kd in assay [7] came to 0.131 nM; in assay [8], 1.24 nM; in assay [9], 0.0364 nM; in assay [10] it was 0.874 nM; in [11] it was 1.02 nM; in the assay with P2-4G, 3.4 nM.
